Data taken from US20240218057A1 (ROCKEFELLER UNIVERSITY, published 2024).

B1: C964 (antibody, V domains shown)
VH: EVQLVESGGGLVQPGRSLRLSCAASGFTFDDYGMHWVRQAPGKGLEWVSGISWNSGSIAYAEFVKGRFTISRDNAKNSLYLQMNSLRTEDTALYYCAKAVPTSCYVFCALDIWGQGTMVTVSS
VL: DIQMTQSPSSLSASVGDRVTITCRASQGISNYLAWYQQSPGKVPKLLIYAASTLQSGVPSRFSGSGSGTDFTLTISSLQPEDVATYYCQKYNSGPALTFGGGTKVEIK
notes: IgG; V domains only
B2: C965 (antibody, V domains shown)
VH: EVQLVESGGGLVKPGRSLRLSCSASGFTFGDYAMTWFRQAPGKGLQWVGFIRSKPFGGTTQYAASVKGRFTISRDDSNNVAYLQMNSLKTEDTGVYYCTRLRQVQGVPGYYFDQWGQGALVTVSS
VL: EIVMTQSPATLSVSPGERATLSCRASQSVSSNLAWYQQKPGQAPRLLIYGASIRATGIPARFSGSGSGTEFTLTISSLQSEDFVVYYCQEYDNWFAFGGGTKVEIK
notes: IgG; V domains only
B3: C966 (antibody, V domains shown)
VH: EVQLVESGGGLIQPGGSLRLSCAASGFTFSSYDMHWVRQVTGKGLEWVSAIGTAGDRYYLDSVKGRFTISRENAKNSLHLQMNNLRVGDTAVYYCARASGVLTTHFDSWGRGTLVTVSS
VL: DIQMTQSPSSLSASVGDRVTITCRASQSIGRHLSWHQQKLGKAPKLLIYSASSLQSGVPSRFSGSGSGTDFTLTISSLQPEDFATYYCQQSYETPPWTFGQGTKVEIK
notes: IgG; V domains only
B4: C971 (antibody, V domains shown)
VH: EVQLVESGGGLVKPGGSLRLSCAASGFTFNNAWMTWVRQAPGKGLEWVGRIKSKTDGGTTDYGTPAKGRFTISRDDSKNTLYLQMKSLRTEDTAVYYCTTVDVQGIWELLENDAFDIWGQGTMVTVSS
VL: EIVLTQSPGTLSLSPGERATLSCRATQAISSTYLAWYQQKPGQAPRLLIYGAFSRAPGIPDRFSGSGSETDFTLTISRLEPEDFAVYYCQQSDRSPFTFGPGTKVDIK
notes: IgG; V domains only
B5: C972 (antibody, V domains shown)
VH: EVQLVESGGGLVQPGGSLRLSCAASEFIVSRNYMSWVRQAPGKGLEWVSLIYPGGSTYYPDSVKGRFTISRDNSKNTLYLQMNSLRGEDTAVYYCARDLGDSRLDYWGQGALVTVSS
VL: DIQLTQSPSFLSASVGDRVTITCRASQGISSYLAWYQQDPGKAPKLLIYAASTLQSGVPSRFSGSGSGTEFTLTISSLQPEDFATYYCQQLDSYPPGYSFGQGTKLEIK
notes: IgG; V domains only
B6: C976 (antibody, V domains shown)
VH: EVQLVESGGALIQPGGSLRLSCAASGFTVSSNDMTWVRQAPGKGLEWVSVIYTGGGTYHADSAKGRFIISRHNSKNTLSLQMNDLRAEDTAVYYCARLTMTTYYFDSWGQGTLVTVSS
VL: SYELTQPPSVSLAPGQTARITCGGNGIGSKSVHWYQQKPGRAPVLVVYDDSVRPSGTPARFSGANSGNTATLTISRVEAGDEADYYCQVWDSFRDHQDWVFGGGTKLTVL
notes: IgG; V domains only
B7: C978 (antibody, V domains shown)
VH: QVQLVQSGAEVKKPGSSVKVSCKASGATFSNYIISWVRQAPGQGLEWMGRTIPLLDIANYAQKFQGRVTITADKSTRIVYMHLGSLTSEDTAVYYCATGKGYSSSSAAYYFDHWGQGTLVTVSS
VL: QSVLTQPPSVSGAPGQRVTISCTGTNSNIGAGYDIHWYQQLPGTAPKLLIYGSNNRPSGVPDRFSGSKSGTSASLAITGLQAEDEADYYCQSYDSSLSGSEVFGGGTKLTVL
notes: IgG; V domains only
B8: C993 (antibody, V domains shown)
VH: EVQLLESGGGLVQPGGSLRLSCAASGFPFSIYAMSWVRQAPGKGLEWVSGMRGTTGTTYYADSVKGRFAISRDNSKNMLHLQMNSLRAEDTAVYYCAKSDHGDYVIGAFDIWGQGTMVTVSS
VL: QSALTQPPSASGSPGQSVTISCTGTSGDVGGYNYVSWYQQHPGKAPKLMIYEVSKRPSGVPDRFSGSKSGNTASLTVSGLQAEDEADYYCNSYAGSNNWVFGGGTKLTVL
notes: IgG; V domains only

What follows are binders tested against T1, SARS-COV-2 RBD (SARS-COV-2, UniProt P0DTC2 319-539) (assay: ELISA, RBD coated).
T1 construct: also called WT RBD

Binder	EC50 [ng/mL]
B1	2.79
B2	1.69
B3	1.97
B4	2.21
B5	2.18
B6	2.52
B7	2.09
B8	2.29
